The subject of one data set is Oc1ccccc1O. In words: initial rates, OD260 product formation, Michaelis-Menten nonlinear fit. Format: biochemical, Acinetobacter baylyi. The note with it: 100 mM potassium phosphate pH 7.4, 25 °C, catechol 0-200 μM. The source says: (§1) initial rates, OD260 product formation, Michaelis-Menten nonlinear fit on catechol 1,2-dioxygenase (CatA)
Substrate in data set [1]: Oc1ccccc1O
Described as above. Format: biochemical, Acinetobacter baylyi. The note with it: 100 mM potassium phosphate pH 7.4, 25 °C, catechol 0-200 μM.
Description: as §1
The source holds these as a separate data set.

The results in this text go back to article PMC4549619, “Engineering catechol 1, 2-dioxygenase by design for improving the performance of the cis, cis-muconic acid synthetic pathway in Escherichia coli” (Scientific Reports, 2015).

In general, Km refers to the substrate concentration at which the rate is half of its maximum. As usually defined, the kcat is the number of substrate molecules converted per active site and unit of time at saturation.

On to “catechol 1,2-dioxygenase (CatA) (Acinetobacter baylyi ADP1; L73F)”, for which, in the data set on Oc1ccccc1O, the Km turned out to be 151.09 ± 10.299 µM and the turnover number (kcat) amounted to 5.65 ± 0.163 s⁻¹.
Taken in the same sequence, the figures for “catechol 1,2-dioxygenase (CatA) (Acinetobacter baylyi ADP1; L73F/P76A)” were 45.96 ± 7.691 µM and 39.5 ± 0.221 s⁻¹.
Consider “catechol 1,2-dioxygenase (CatA) (Acinetobacter baylyi ADP1; P76A)”, for which, in the data set on Oc1ccccc1O, the Km was found to be 65.91 ± 7.753 µM and the kcat turned out to be 46.56 ± 0.201 s⁻¹.

B1: catechol 1,2-dioxygenase (CatA) (Acinetobacter baylyi ADP1) (protein)
chain: MEVKIFNTQDVQDFLRVASGLEQEGGNPRVKQIIHRVLSDLYKAIEDLNITSDEYWAGVAYLNQLGANQEAGLLSPGLGFDHYLDMRMDAEDAALGIENATPRTIEGPLYVAGAPESVGYARMDDGSDPNGHTLILHGTIFDADGKPLPNAKVEIWHANTKGFYSHFDPTGEQQAFNMRRSIITDENGQYRVRTILPAGYGCPPEGPTQQLLNQLGRHGNRPAHIHYFVSADGHRKLTTQINVAGDPYTYDDFAYATREGLVVDAVEHTDPEAIKANDVEGPFAEMVFDLKLTRLVDGVDNQVVDRPRLAV
Take B1: in data set [1], the Km came out at 7.88 ± 1.239 µM and the kcat came to 7.86 ± 0.248 s⁻¹.
